Source: patent US20180095098A1

Biological target: Human β2-adrenergic receptor, amino-terminal FLAG epitope tag, truncated after residue 365, biotinylated, bound to the agonist BI-167107 (human) (UniProt P07550)
Assay: SPR (Biacore T100, 25 °C), biotinylated BI-167107-bound receptor on SA chip, single-cycle kinetics

fold slowing of dissociation against wild-type Nb80: > 10 fold
Substance: Nb6B9, high affinity variant of Nb80 (VHH)
